Test results published in doi:10.1101/2025.10.20.683411 (bioRxiv, 2025).

Tests used:
[1] = target: yNup100FG (aa1-580) (yeast, UniProt Q02629 1-580, fluorescein-5-maleimide label (labelled protein mixed with unlabelled protein)); test: fluorescence microscopy of particles formed by mixed purified labelled proteins
[2] = target: yNup116FG (aa1-725) (yeast, UniProt Q02630 1-725, fluorescein-5-maleimide label (labelled protein mixed with unlabelled protein)); test: as above
[3] = target: T1, hNup153 (aa875-1475) (human, UniProt P49790 875-1475, fluorescein-5-maleimide label (labelled protein mixed with unlabelled protein)); test: as above
T1 sequence: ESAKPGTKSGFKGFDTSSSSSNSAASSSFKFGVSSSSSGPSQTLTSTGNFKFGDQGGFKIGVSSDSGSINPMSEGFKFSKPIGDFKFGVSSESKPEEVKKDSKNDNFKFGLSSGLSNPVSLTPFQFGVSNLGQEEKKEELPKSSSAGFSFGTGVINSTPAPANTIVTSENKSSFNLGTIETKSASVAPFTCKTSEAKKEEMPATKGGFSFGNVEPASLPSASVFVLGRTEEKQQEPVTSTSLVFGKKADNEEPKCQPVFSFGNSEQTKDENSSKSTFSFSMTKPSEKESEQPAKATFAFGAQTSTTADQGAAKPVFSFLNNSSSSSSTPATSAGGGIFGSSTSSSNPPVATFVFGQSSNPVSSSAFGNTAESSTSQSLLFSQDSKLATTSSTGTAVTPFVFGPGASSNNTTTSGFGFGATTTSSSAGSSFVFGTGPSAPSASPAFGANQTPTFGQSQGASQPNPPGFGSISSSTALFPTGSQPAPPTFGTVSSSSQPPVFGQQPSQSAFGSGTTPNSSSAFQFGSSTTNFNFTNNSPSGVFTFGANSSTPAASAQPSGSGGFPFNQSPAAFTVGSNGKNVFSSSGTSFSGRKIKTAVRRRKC

[4] = target: the molecule itself; test: as above
[5] = target: the molecule itself; test: fluorescence microscopy of particles formed by one purified labelled protein

Measured: binding result

B1: DNAJB8 (natural protein, human)
chain: MANYYEVLGVQASASPEDIKKAYRKLALRWHPDKNPDNKEEAEKKFKLVSEAYEVLSDSKKRSLYDRAGCDSWRAGGGASTPYHSPFDTGYTFRNPEDIFREFFGGLDPFSFEFWDSPFNSDRGGRGHGLRGAFSAGFGEFPAFMEAFSSFNMLGCSGGSHTTFSSTSFGGSSSGSSGFKSVMSSTEMINGHKVTTKRIVENGQERVEVEEDGQLKSVTVNGKEQLKWMDSKC
modifications: Alexa Fluor 594 C5-maleimide label (labelled protein mixed with unlabelled protein)
not listed: [5]
binds: all other assays above

B2: DNAJB2 isoform a (natural protein, human)
chain: MASYYEILDVPRSASADDIKKAYRRKALQWHPDKNPDNKEFAEKKFKEVAEAYEVLSDKHKREIYDRYGREGLTGTGTGPSRAEAGSGGPGFTFTFRSPEEVFREFFGSGDPFAELFDDLGPFSELQNRGSRHSGPFFTFSSSFPGHSDFSSSSFSFSPGAGAFRSVSTSTTFVQGRRITTRRIMENGQERVEVEEDGQLKSVTINGVPDDLALGLELSRREQQPSVTSRSGGTQVQQTPASCPLDSDLSEDEDLQLAMAYSLSEMEAAGKKPADVFC
modifications: Alexa Fluor 594 C5-maleimide label (labelled protein mixed with unlabelled protein)
not listed: [5]
binds: all other assays above

B3: DNAJB6 isoform b, wildtype (natural protein)
chain: not shown
modifications: Alexa Fluor 594 C5-maleimide label (labelled protein mixed with unlabelled protein)
not listed: [4]
binds: all other assays above
